Measured values from publication PMC2987827.

Tests used:
Experiment in all cases: cross-linking; 293T cells coexpressing FLAG- and HA-tagged Gag and V1B-MS2 viral RNA treated with 1 mM EGS, 30 min, room temperature; membrane flotation; cytoplasmic fraction (10th fraction) analysed by anti-FLAG western blot
[1] = target: HIV-1 Gag-delCTD, FLAG- and HA-tagged (lacking the C-terminal domain of capsid) (HIV-1)
[2] = target: HIV-1 G2A-Gag, FLAG- and HA-tagged (HIV-1)
[3] = target: HIV-1 Gag, FLAG- and HA-tagged (wild type) (HIV-1)

HIV-1 Gag-delCTD, FLAG- and HA-tagged (lacking the C-terminal domain of capsid) (natural protein)
stoichiometry N [1]: 2

HIV-1 G2A-Gag, FLAG- and HA-tagged (natural protein)
stoichiometry N [2]: 2

HIV-1 Gag, FLAG- and HA-tagged (wild type) (natural protein)
stoichiometry N [3]: 2
